Experimental findings from article PMC3605151, “The Common Structural Architecture of Shigella flexneri and Salmonella typhimurium Type Three Secretion Needles” (PLoS Pathogens, 2013) are described below.

The series concerns the molecule itself. Briefly: in vitro polymerisation into needles, seen by transmission electron microscopy and solid-state NMR; purified subunit polymerised at 0.2 mM, 37°C, sixteen days; needles ultra-centrifuged for magic-angle spinning solid-state NMR at 5.5°C.

B1: MxiH, wild-type Shigella flexneri T3SS needle subunit (recombinant, His tag cleaved) (natural protein)
chain: GHMSVTVPDKDWTLSSLSETFDDGTQTLQGQLTSALNALAENPSNPQLLAEYQSKLSEYTLYRNAQSNTVKVIKDVDAAIIQNFR
modifications: 15N and 13C isotope labelling
notes: non-native N-terminal residues glycine and histidine left after cleavage by tobacco etch virus protease (told in words); MxiH, T3SS needle subunit, Shigella flexneri serotype 6, residues Met1 to R83; Helical homopolymer (needle); also called WT MxiH; WT Shigella T3SS needles; source: polymerized in vitro; not shown: hepta-Histidine (His) tag, N-terminal, cleaved
For B1, the binding result is recorded as “binds”.
